The results in this text go back to patent publication US20150010574A1 (Boehringer Ingelheim, published 2015).

Test [1] has as its target T1, rat IGF-2 (rat, UniProt P01346 25-91).
T1 construct: Bought recombinant protein
Put plainly: direct ELISA, rat IGF-2 coated on the plate, anti-human IgG-HRPO, OD 450 nm. Background: An ELISA detects its analyte on a solid surface through an enzyme-linked reagent.
Description: (§1) Fully human IgG1 antibodies that bound with high affinity to IGF-1 are also tested for binding to human IGF-1 in direct immunosorbent assays (ELISA). Assays are performed by coating human IGF-1 (R&D Systems, No. 291-G1) to 96-well Maxisorb plates at a concentration of 0.5 μg/ml overnight at 4° C. (100 μl/well). Coating buffer alone is used as a control for unspecific binding. Wells are then washed once with washing buffer (1×TBS-T) and residual binding sites are blocked with 200 μl blocking buffer for 1 hour at room temperature on an orbital shaker followed by a further wash cycle. Serial three-fold dilutions of each test antibody in blocking buffer are prepared directly on the coated plates. […] Blocking buffer alone is used as a positive control. The plates are then incubated for 2 hours at room temperature with agitation. After three wash cycles 100 μl/well of HRPO-conjugated anti-human IgG secondary reagent (Jackson ImmunoResearch Inc.) diluted in blocking buffer is added to all wells. After 2 hours incubation at room temperature with agitation the plates are washed three-times and 100 μl/well of TMB substrate solution (equal amounts of solution A and B) are pipetted into all wells. […] The absorbance is measured at a wavelength of 450 nm (reference 650 nm).

Test [2] deals with T2, mouse IGF-2 (mouse, UniProt P09535 25-91).
T2 construct: Bought recombinant protein; also called murine IGF-2
Put plainly: direct ELISA, mouse IGF-2 coated on the plate, anti-human IgG-HRPO, OD 450 nm.
Description: as §1

Test [3] concerns the target T3, human IGF-1 (human, UniProt P05019 49-118). Put plainly: cell-based or functional assay.
Test [4] has as its target T4, human IGF-2 (human, UniProt P01344 25-91). Description: cell-based or functional assay.
Test [5] addresses T5, mouse IGF-1 (mouse, UniProt P05017 49-118).
T5 construct: Bought recombinant protein; also called murine IGF-1
Put plainly: direct ELISA, mouse IGF-1 coated on the plate, anti-human IgG-HRPO, OD 450 nm.
Description: as §1

For test [6], the target named is T3, human IGF-1. Put plainly: electrochemiluminescence-based equilibrium titration (BioVeris).
Test [7] addresses T6, rat IGF-1 (rat, UniProt P08025 49-118).
T6 construct: Bought recombinant protein
Put plainly: direct ELISA, rat IGF-1 coated on the plate, anti-human IgG-HRPO, OD 450 nm.
Description: as §1

In the next test the target is T7, human insulin (human, UniProt P01308 25-54; P01308 90-110).
T7 construct: Bought (Roche); coated at 3 ug/ml in the ELISA
Put plainly: direct ELISA, human insulin coated at 3 ug/ml, anti-human IgG-HRPO, OD 450 nm.

Test [8] addresses T3, human IGF-1. Description: cell-based or functional assay. This is another data set of the same source.
In test [9] the target is T4, human IGF-2. Description: cell-based or functional assay. This is another data set of the same source.
Test [10] addresses T4, human IGF-2. Put plainly: cell-based or functional assay. This is another data set of the same source.
For test [11], the target named is T6, rat IGF-1. Description: SPR (Biacore 3000), antibody captured by anti-human Fc, IGF antigen flowed, 25 C. (In SPR one partner is held on a chip, and binding of the other changes the refractive index at the surface.)
Description: (§2) The sensor chip is coated with approximately 1000 RU of the reference antibody in flow cell 1 and approximately 1000 RU of a rabbit-anti-human Fc-gamma-specific antibody in flow cell 2 using the coupling reagents from an amine coupling kit. A target of 1000 RU is set in the surface preparation wizard of the Biacore 3000 software at a flow rate of 5 μl/min Running buffer used is HBS-EP. […] Blank runs using running buffer only are run in-between. A blank run curve is subtracted from each binding curve before affinity analysis. Data evaluation is performed using the BIAevaluation software (version 4.1, Biacore, Freiburg, Germany). The dissociation and association phases of the kinetics are fitted separately. For the separate fit of the kdiss values a time-frame of the initial 200-300 seconds in the dissociation phase is used (range of steady decrease of signal). For the separate fit of the kₐₛₛ values, initial time frames of approx 100 seconds are used (range of steady increase of signal) and for calculation the individual kdiss values are used with the 1:1 Langmuir association model. The average values with the standard deviations of the kinetic data together with the corresponding dissociation (KD) and association (KA) constants are calculated.
Test [12] deals with T5, mouse IGF-1. Described as above.
Description: as §2
Test [13] deals with T1, rat IGF-2. Described as above.
Description: as §2
Test [14] addresses T3, human IGF-1. The test is described as above.
Description: as §2
The target of test [15] is T2, mouse IGF-2. The test is described as above.
Description: as §2
In test [16] the target is T4, human IGF-2. Described as above.
Description: as §2

Broadly, the Kd is the concentration at which binding is half-saturated. Low values mean higher affinity, high ones lower affinity. One may read the koff as a measure of how fast the partners let go of each other. A high value points to fast dissociation. In general, kon refers to the rate constant with which the complex forms.

Numbering of substitutions follows the chain as printed.

T1 sequence (P01346 25-91 limits assumed): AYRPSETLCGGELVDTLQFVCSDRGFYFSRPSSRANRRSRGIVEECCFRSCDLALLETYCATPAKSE
T6 sequence (P08025 49-118 limits assumed): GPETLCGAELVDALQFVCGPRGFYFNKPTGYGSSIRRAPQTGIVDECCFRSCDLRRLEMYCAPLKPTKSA
T7 sequence (P01308 25-54 limits assumed, chain 1 of 2): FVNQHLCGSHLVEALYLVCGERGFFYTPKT
T7 sequence (P01308 90-110 limits assumed, chain 2 of 2): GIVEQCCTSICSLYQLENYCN
T2 sequence (P09535 25-91 limits assumed): as the sequence (P01346 25-91 limits assumed) above, with R3G, S5G counted along it
T5 sequence (P05017 49-118 limits assumed): as the sequence (P08025 49-118 limits assumed) above, with S69A counted along it
T4 sequence (P01344 25-91 limits assumed): as the sequence (P01346 25-91 limits assumed) above, with S22G, S32A, A35V, N36S counted along it
T3 sequence (P05019 49-118): as the sequence (P08025 49-118 limits assumed) above, with P20D, I35S, T67A counted along it
Description for human insulin: Fully human IgG1 antibodies that bound with high affinity to IGF-1 are also tested for binding to human IGF-1 in direct immunosorbent assays (ELISA). Assays are performed by coating human IGF-1 (R&D Systems, No. 291-G1) to 96-well Maxisorb plates at a concentration of 0.5 μg/ml overnight at 4° C. (100 μl/well). Coating buffer alone is used as a control for unspecific binding. Wells are then washed once with washing buffer (1×TBS-T) and residual binding sites are blocked with 200 μl blocking buffer for 1 hour at room temperature on an orbital shaker followed by a further wash cycle. Serial three-fold dilutions of each test antibody in blocking buffer are prepared directly on the coated plates. […] Blocking buffer alone is used as a positive control. The plates are then incubated for 2 hours at room temperature with agitation. After three wash cycles 100 μl/well of HRPO-conjugated anti-human IgG secondary reagent (Jackson ImmunoResearch Inc.) diluted in blocking buffer is added to all wells. After 2 hours incubation at room temperature with agitation the plates are washed three-times and 100 μl/well of TMB substrate solution (equal amounts of solution A and B) are pipetted into all wells. The plates are incubated for 10-20 min at RT with agitation and then the reaction is stopped by addition of 100 μl/well 1 M phosphoric acid. The absorbance is measured at a wavelength of 450 nm (reference 650 nm).

B1: antibody 60814 (antibody, human IgG1, lambda, V domains shown)
VH: QVELVESGGGLVQPGGSLRLSCAASGFTFSNYWMHWVRQAPGKGLEWVSGISGWSSWTYYADSVKGRFTISRDNSKNTLYLQMNSLRAEDTAVYYCARFGIDAYTKVYFDYWGQGTLVTVSS
VL: DIELTQPPSVSVAPGQTARISCSGDNIPLKYVSWYQQKPGQAPVLVIHDDNKRPSGIPERFSGSNSGNTATLTISGTQAEDEADYYCSSWDTLDIFNVFGGGTKLTVLG
notes: Fully human IgG1 with Ig lambda light chain
On to B1, for which the binding result in the test with rat IGF-2 [1] is listed as “binds”; with mouse IGF-2 [2], “binds”; with mouse IGF-1 [5] it was “binds”; with rat IGF-1 [7], “binds”; with human insulin, “no binding (tested: 50 ng/mL)”. Moreover, the “IC50 of IGF-1 induced COLO-205 cell proliferation” value with human IGF-1 [3] was 0.135 µg/mL. Also, the “IC50 of IGF-1 induced MCF7 cell proliferation” value with human IGF-1 [3] was found to be 0.0241 µg/mL. The “IC50 of IGF-2 induced COLO 205 cell proliferation” value with human IGF-2 [4] amounted to 0.576 µg/mL. For the same molecule, the “IC50 of IGF-2 induced MCF7 cell proliferation” value with human IGF-2 [4] was 0.0782 µg/mL. The molecule further displayed a dissociation constant Kd in the test with human IGF-1 [6] of 0.18 nM.

B2: antibody 60819 (antibody, human IgG1, lambda, V domains shown)
VH: B1 VH
VL: B1 VL with S88Q, W90Y, T92Y, L93F, D94P, I95K, N97V
notes: as for B1
On to B2, for which the binding result was “binds” in the test with rat IGF-2 [1]; “binds” in the test with mouse IGF-2 [2]; “binds” in the test with mouse IGF-1 [5]; “binds” with rat IGF-1 [7]; “no binding (tested: 50 ng/mL)” in the test with human insulin. In addition, in the test with human IGF-1 [3], the “IC50 of IGF-1 induced COLO-205 cell proliferation” value came to 0.217 µg/mL. Further, the “IC50 of IGF-1 induced MCF7 cell proliferation” value in the test with human IGF-1 [3] came out at 0.054 µg/mL. Also, the “IC50 of IGF-2 induced COLO 205 cell proliferation” value in the test with human IGF-2 [4] was determined as 0.101 µg/mL. In addition, the “IC50 of IGF-2 induced MCF7 cell proliferation” value with human IGF-2 [4] is 0.0408 µg/mL. Further, binding with human IGF-1 [6] was put at a Kd of 0.19 nM.

B3: antibody 60833 (antibody, human IgG1, lambda, V domains shown)
VH: QVELVESGGGLVQPGGSLRLSCAASGFTFTSYWMSWVRQAPGKGLELVSSITSYGSFTYYADSVKGRFTISRDNSKNTLYLQMNSLRAEDTAVYYCARNMYTHFDSWGQGTLVTVSS
VL: DIVLTQPPSVSGAPGQRVTISCSGSSSNIGSNSVSWYQQLPGTAPKLLIYDNSKRPSGVPDRFSGSKSGTSASLAITGLQSEDEADYYCQSRDTYGYYWVFGGGTKLTVLG
notes: as for B1
With B3, the “IC50 of IGF-1 induced COLO-205 cell proliferation” value with human IGF-1 [3] is 0.165 µg/mL. The “IC50 of IGF-1 induced MCF7 cell proliferation” value with human IGF-1 [3] is 0.0386 µg/mL. Besides, the “IC50 of IGF-2 induced COLO 205 cell proliferation” value in the test with human IGF-2 [4] was 0.632 µg/mL. For the same molecule, the “IC50 of IGF-2 induced MCF7 cell proliferation” value with human IGF-2 [4] came out at 0.0812 µg/mL. Further, the equilibrium dissociation constant (Kd) with human IGF-1 [6] is 0.13 nM; in the test with rat IGF-1 [11], 0.07 nM; in the test with mouse IGF-1 [12], 0.33 nM; with rat IGF-2 [13] it was 2.41 nM; in the test with human IGF-1 [14] it was 0.07 nM; in the test with mouse IGF-2 [15] it was 13.4 nM. Also, the Kd with human IGF-2 [16] amounted to 0.913 nM. For the same molecule, the “IC50 of IGF-1 (20 ng/mL) induced IGF-1R phosphorylation, cell based ELISA” value in the test with human IGF-1 [8] amounted to 0.09 µg/mL. Further, the “IC50 of IGF-2 (100 ng/mL) induced IGF-1R phosphorylation, cell based ELISA” value in the test with human IGF-2 [9] was found to be 1.12 µg/mL. In addition, the “IC50 of IGF-2 (100 ng/mL) induced IR-A phosphorylation, cell based ELISA” value in the test with human IGF-2 [10] came to 0.82 µg/mL. Moreover, the dissociation rate constant (koff) with rat IGF-1 [11] worked out at 0.000253 s⁻¹; with mouse IGF-1 [12], 0.000323 s⁻¹; in the test with rat IGF-2 [13], 0.00613 s⁻¹; with human IGF-1 [14], 0.000301 s⁻¹; with mouse IGF-2 [15], 0.011 s⁻¹; in the test with human IGF-2 [16], 0.00353 s⁻¹. In addition, the kon with rat IGF-1 [11] amounted to 3.81e+06 M⁻¹ s⁻¹; with mouse IGF-1 [12] it was 1e+06 M⁻¹ s⁻¹; in the test with rat IGF-2 [13], 2.56e+06 M⁻¹ s⁻¹; in the test with human IGF-1 [14] it was 4.74e+06 M⁻¹ s⁻¹; in the test with mouse IGF-2 [15], 868000 M⁻¹ s⁻¹; in the test with human IGF-2 [16] it was 3.97e+06 M⁻¹ s⁻¹. In the test with human insulin, the binding result is reported as “no binding (tested: 50 ng/mL)”.
